Test results: ChEMBL document CHEMBL1908105, “UDP-glucuronosyltransferases and clinical drug-drug interactions” (Pharmacol Ther, 2005)

T1: UDP-glucuronosyltransferase 1A3 (Homo sapiens, UniProt P35503)
T1 sequence (P35503 whole entry): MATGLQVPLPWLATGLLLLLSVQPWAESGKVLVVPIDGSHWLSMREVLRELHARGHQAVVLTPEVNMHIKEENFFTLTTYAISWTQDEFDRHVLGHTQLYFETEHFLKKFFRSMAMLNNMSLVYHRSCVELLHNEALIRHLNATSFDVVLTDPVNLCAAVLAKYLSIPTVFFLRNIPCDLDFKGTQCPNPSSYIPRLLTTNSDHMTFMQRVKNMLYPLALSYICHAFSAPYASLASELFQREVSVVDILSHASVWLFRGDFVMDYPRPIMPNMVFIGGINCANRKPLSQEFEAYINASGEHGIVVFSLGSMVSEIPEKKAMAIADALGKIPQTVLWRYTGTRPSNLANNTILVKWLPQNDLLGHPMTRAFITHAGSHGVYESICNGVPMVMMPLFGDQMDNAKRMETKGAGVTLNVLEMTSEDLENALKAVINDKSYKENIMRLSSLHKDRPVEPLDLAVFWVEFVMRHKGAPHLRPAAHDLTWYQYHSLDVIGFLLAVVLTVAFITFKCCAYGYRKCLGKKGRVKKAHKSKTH

T2: UDP-glucuronosyltransferase 2B7 (Homo sapiens, UniProt P16662)
T2 sequence (P16662 whole entry): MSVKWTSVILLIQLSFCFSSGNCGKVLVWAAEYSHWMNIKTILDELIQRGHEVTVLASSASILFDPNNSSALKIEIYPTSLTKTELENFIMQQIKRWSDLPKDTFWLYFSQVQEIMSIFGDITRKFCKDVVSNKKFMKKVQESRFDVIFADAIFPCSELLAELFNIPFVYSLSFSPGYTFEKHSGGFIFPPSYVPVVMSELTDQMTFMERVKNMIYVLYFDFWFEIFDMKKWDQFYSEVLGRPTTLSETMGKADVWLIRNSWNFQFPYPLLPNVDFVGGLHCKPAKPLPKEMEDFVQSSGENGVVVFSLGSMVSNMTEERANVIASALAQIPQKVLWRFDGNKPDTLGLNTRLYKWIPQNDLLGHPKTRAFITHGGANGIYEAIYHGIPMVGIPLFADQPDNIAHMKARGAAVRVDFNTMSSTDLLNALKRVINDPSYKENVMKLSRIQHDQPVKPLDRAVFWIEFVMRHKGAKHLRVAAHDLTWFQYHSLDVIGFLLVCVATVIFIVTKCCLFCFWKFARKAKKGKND

T3: UGT2B7 (Homo sapiens, UniProt P16662)
T3 sequence (P16662 whole entry): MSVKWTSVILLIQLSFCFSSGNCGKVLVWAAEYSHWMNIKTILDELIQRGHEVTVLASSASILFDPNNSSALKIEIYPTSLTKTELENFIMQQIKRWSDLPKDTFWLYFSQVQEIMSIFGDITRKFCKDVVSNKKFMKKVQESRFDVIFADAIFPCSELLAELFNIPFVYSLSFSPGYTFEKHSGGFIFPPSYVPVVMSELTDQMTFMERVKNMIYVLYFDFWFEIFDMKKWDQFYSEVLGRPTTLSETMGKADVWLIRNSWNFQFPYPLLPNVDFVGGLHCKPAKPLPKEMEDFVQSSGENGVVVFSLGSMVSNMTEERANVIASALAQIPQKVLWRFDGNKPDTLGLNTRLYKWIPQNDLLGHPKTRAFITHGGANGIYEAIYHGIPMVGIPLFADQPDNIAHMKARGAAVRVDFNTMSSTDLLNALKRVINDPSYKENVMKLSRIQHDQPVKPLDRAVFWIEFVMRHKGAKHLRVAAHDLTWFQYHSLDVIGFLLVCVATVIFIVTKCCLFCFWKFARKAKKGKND


Tests used:
[1] = biological target: T1, UDP-glucuronosyltransferase 1A3; assay: (§1) Drug glucuronidation reaction catalyzed by human recombinant UGT1A3
[2] = biological target: UGT1A3 (Homo sapiens, UniProt P35503); assay: as §1; settings: recombinant UGT1A3
[3] = biological target: T2, UDP-glucuronosyltransferase 2B7; assay: (§2) Drug glucuronidation reaction catalyzed by human recombinant UGT2B7
[4] = biological target: T3, UGT2B7; assay: as §2; settings: recombinant UGT2B7
[5] = Inhibition of AZT glucuronidation by human UGT enzymes from liver microsomes; parameters: species or system Microsome
[6] = substrate: CC(C)c1cccc(C(C)C)c1O; assay: not read
[7] = substrate: CN1CC[C@]23c4c5ccc(O[C@@H]6O[C@H](C(=O)O)[C@@H](O)[C@H](O)[C@H]6O)c4O[C@H]2[C@@H](O)C=C[C@H]3[C@H]1C5; assay: (§3) Drug glucuronidation reaction catalyzed by human recombinant UGT1A8
[8] = substrate: COc1c(C)c2c(c(O)c1C/C=C(\C)CCC(=O)O)C(=O)OC2; assay: as §3
[9] = substrate: O=C(c1ccc(OCCN2CCCCC2)cc1)c1c(-c2ccc(O)cc2)sc2cc(O[C@@H]3O[C@H](C(=O)O)[C@@H](O)[C@H](O)[C@H]3O)ccc12; assay: as §3
[10] = substrate: O=C(c1ccc(OCCN2CCCCC2)cc1)c1c(-c2ccc(O[C@H]3O[C@H](C(=O)O)[C@@H](O)[C@H](O)[C@H]3O)cc2)sc2cc(O)ccc12; assay: as §3
[11] = substrate: O=C1CC[C@@]2(O)[C@H]3Cc4ccc(O)c5c4[C@@]2(CCN3CC2CC2)[C@H]1O5; assay: as §3

Molecule	Vmax [1]	Km [2]	Vmax [3]	Km [4]	Ki [5]	Km [6]	Vmax [6]	Km [7]	Vmax [7]	Km [8]	Vmax [8]	Km [9]	Vmax [9]	Km [10]	Vmax [10]	Km [11]	Vmax [11]
CC(C(=O)O)c1ccc(-c2ccccc2)c(F)c1 (configuration not stated) [FLURBIPROFEN]	45 pmol/min/mg protein	90 µM	315 pmol/min/mg protein	28 µM	50 µM												
UDP-glucuronosyltransferase 1A8 (Homo sapiens) (protein) MARTGWTSPIPLCVSLLLTCGFAEAGKLLVVPMDGSHWFTMQSVVEKLILRGHEVVVVMPEVSWQLGKSLNCTVKTYSTSYTLEDLDREFMDFADAQWKAQVRSLFSLFLSSSNGFFNLFFSHCRSLFNDRKLVEYLKESSFDAVFLDPFDACGLIVAKYFSLPSVVFARGIACHYLEEGAQCPAPLSYVPRILLGFSDAMTFKERVRNHIMHLEEHLFCQYFSKNALEIASEILQTPVTAYDLYSHTSIWLLRTDFVLDYPKPVMPNMIFIGGINCHQGKPLPMEFEAYINASGEHGIVVFSLGSMVSEIPEKKAMAIADALGKIPQTVLWRYTGTRPSNLANNTILVKWLPQNDLLGHPMTRAFITHAGSHGVYESICNGVPMVMMPLFGDQMDNAKRMETKGAGVTLNVLEMTSEDLENALKAVINDKSYKENIMRLSSLHKDRPVEPLDLAVFWVEFVMRHKGAPHLRPAAHDLTWYQYHSLDVIGFLLAVVLTVAFITFKCCAYGYRKCLGKKGRVKKAHKSKTH						412 µM	0.00382 µmol/min/mg	26000 µM	1.3e-05 µmol/min/mg	298 µM	0.0326 µmol/min/mg	8 µM	0.00061 µmol/min/mg	59 µM	0.002 µmol/min/mg	1550 µM	0.000495 µmol/min/mg
